Measured values: PMC7374751, “TIMP-3 facilitates binding of target metalloproteinases to the endocytic receptor LRP-1 and promotes scavenging of MMP-1” (Scientific Reports, 2020)

B1: FLAG-tagged ADAMTS-4 lacking the C-terminal spacer domain (ADAMTS4-2) (domain or fragment, UniProt O75173 213-685, looked up)
chain: FASLSRFVETLVVADDKMAAFHGAGLKRYLLTVMAAAAKAFKHPSIRNPVSLVVTRLVILGSGEEGPQVGPSAAQTLRSFCAWQRGLNTPEDSDPDHFDTAILFTRQDLCGVSTCDTLGMADVGTVCDPARSCAIVEDDGLQSAFTAAHELGHVFNMLHDNSKPCISLNGPLSTSRHVMAPVMAHVDPEEPWSPCSARFITDFLDNGYGHCLLDKPEAPLHLPVTFPGKDYDADRQCQLTFGPDSRHCPQLPPPCAALWCSGHLNGHAMCQTKHSPWADGTPCGPAQACMGGRCLHMDQLQDFNIPQAGGWGPWGPWGDCSRTCGGGVQFSSRDCTRPVPRNGGKYCEGRRTRFRSCNTEDCPTGSALTFREEQCAAYNHRTDLFKSFPGPMDWVPRYTGVAPQDQCKLTCQAQALGYYYVLEPRVVDGTPCSPDSSSVCVQGRCIHAGCDRIIGSKKKFDKCMVCGGDGSGC
notes: ADAMTS-4 lacking the C-terminal spacer domain
B2: Receptor-associated protein (RAP), recombinant His-tagged (natural protein, UniProt P30533 35-357, looked up)
chain: YSREKNQPKPSPKRESGEEFRMEKLNQLWEKAQRLHLPPVRLAELHADLKIQERDELAWKKLKLDGLDEDGEKEARLIRNLNVILAKYGLDGKKDARQVTSNSLSGTQEDGLDDPRLEKLWHKAKTSGKFSGEELDKLWREFLHHKEKVHEYNVLLETLSRTEEIHENVISPSDLSDIKGSVLHSRHTELKEKLRSINQGLDRLRRVSHQGYSTEAEFEEPRVIDLWDLAQSANLTDKELEAFREELKHFEAKIEKHNHYQKQLEIAHEKLRHAESVGDGERVSRSREKHALLEGRTKELGYTVKKHLQDLSGRISRARHNEL
B3: MMP-1ΔC/TIMP-3 complex (complex)
chain 1: FVLTEGNPRWEQTHLTYRIENYTPDLPRADVDHAIEKAFQLWSNVTPLTFTKVSEGQADIMISFVRGDHRDNSPFDGPGGNLAHAFQPGPGIGGDAHFDEDERWTNNFREYNLHRVAAHELGHSLGLSHSTDIGALMYPSYTFSGDVQLAQDDIDGIQAIYGRSQNPVQP
chain 2: CTCSPSHPQDAFCNSDIVIRAKVVGKKLVKEGPFGTLVYTIKQMKMYRGFTKMPHVQYIHTEASESLCGLKLEVNKYQYLLTGRVYDGKMYTGLCNFVERWDQLTLSQRKGLNYRYHLGCNCKIKSCYYLPCFVTSKNECLWTDMLSNFGYPGYQSKHYACIRQKGGYCSWYRGWAPPDKSIINATDP
notes: catalytic domain of human MMP-1; pro-domain removed with APMA; as m8; as m3
B4: ADAM-10/TIMP-3 complex (complex)
chain 1: TTSAEKNTCQLYIQTDHLFFKYYGTREAVIAQISSHVKAIDTIYQTTDFSGIRNISFMVKRIRINTTADEKDPTNPFRFPNIGVEKFLELNSEQNHDDYCLAYVFTDRDFDDGVLGLAWVGAPSGSSGGICEKSKLYSDGKKKSLNTGIITVQNYGSHVPPKVSHITFAHEVGHNFGSPHDSGTECTPGESKNLGQKENGNYIMYARATSGDKLNNNKFSLCSIRNISQVLEKKRNNCFVESGQPICGNGMVEQGEECDCGYSDQCKDECCFDANQPEGRKCKLKPGKQCSPSQGPCCTAQCAFKSKSEKCRDDSDCAREGICNGFTALCPASDPKPNFTDCNRHTQVCINGQCAGSICEKYGLEECTCASSDGKDDKELCHVCCMKKMDPSTCASTGSVQWSRHFSGRTITLQPGSPCNDFRGYCDVFMRCRLVDADGPLARLKKAIFSPELYENIAE
chain 2: B3 chain 2
modifications: 1:1 non-covalent complex; ADAM10 ectodomain (R&D Systems) taken by convention as mature extracellular region without prodomain (catalytic Zn2+), limits not given; TIMP-3 C-terminal/FLAG tag left …
B5: ADAMTS4-2/TIMP-3 complex (complex)
chain 1: B1 chain
chain 2: B3 chain 2
notes: ADAMTS-4 lacking the C-terminal spacer domain; as m16; as m3; also called [35S]TIMP-3/ADAMTS4-2
B6: ADAMTS5-2/TIMP-3 complex (complex)
chain 1: SISRARQVELLLVADASMARLYGRGLQHYLLTLASIANRLYSHASIENHIRLAVVKVVVLGDKDKSLEVSKNAATTLKNFCKWQHQHNQLGDDHEEHYDAAILFTREDLCGHHSCDTLGMADVGTICSPERSCAVIEDDGLHAAFTVAHEIGHLLGLSHDDSKFCEETFGSTEDKRLMSSILTSIDASKPWSKCTSATITEFLDDGHGNCLLDLPRKQILGPEELPGQTYDATQQCNLTFGPEYSVCPGMDVCARLWCAVVRQGQMVCLTKKLPAVEGTPCGKGRICLQGKCVDKTKKKYYSTSSHGNWGSWGSWGQCSRSCGGGVQFAYRHCNNPAPRNNGRYCTGKRAIYRSCSLMPCPPNGKSFRHEQCEAKNGYQSDAKGVKTFVEWVPKYAGVLPADVCKLTCRAKGTGYYVVFSPKVTDGTECRLYSNSVCVRGKCVRTGCDGIIGSKLQYDKCGVCGGDNSSCTKIVGTFNKKSKGYTDVVRIPEGATHIKVRQFKAKDQTRFTAYLALKKKNGEYLINGKYMISTSETIIDINGTVMNYSGWSHRDDFLHGMGYSATKEILIVQILATDPTKPLDVRYSFFVPKKSTPKVNSVTSHGSNKVGSHT
chain 2: B3 chain 2
notes: ADAMTS-5 lacking the C-terminal thrombospondin domain; as m17; as m3; also called [35S]TIMP-3/ADAMTS5-2
B7: FLAG-tagged N-TIMP-3 (N-terminal domain of TIMP-3) (domain or fragment, UniProt P35625 24-143, looked up)
chain: CTCSPSHPQDAFCNSDIVIRAKVVGKKLVKEGPFGTLVYTIKQMKMYRGFTKMPHVQYIHTEASESLCGLKLEVNKYQYLLTGRVYDGKMYTGLCNFVERWDQLTLSQRKGLNYRYHLGC
B8: FLAG-tagged ADAMTS-5 lacking the C-terminal thrombospondin domain (ADAMTS5-2) (domain or fragment, UniProt Q9UNA0 262-874, looked up)
chain: B6 chain 1
notes: ADAMTS-5 lacking the C-terminal thrombospondin domain
B9: TIMP-1 (natural protein)
chain: not shown
notes: also called T1

Each binder was assayed against T1, low-density lipoprotein receptor-related protein 1 (LRP-1) (UniProt Q07954 20-4544) (assay: SPR; BIAcore T200; LRP-1 immobilised on a CM5 chip by amine coupling (3000 RU); 25 °C; 150 mM NaCl, 10 mM CaCl2, 50 mM Tris-HCl, 0.01% Tween-20, pH 7.5; 30 μl/min; ligands or pre-formed complexes injected; one-site binding model; triplicate). Conditions: both partners purified.
T1 construct: low-density lipoprotein receptor-related protein 1 (LRP-1), bought from Biomac; source: bought: Biomac (Leipzig, Germany)
T1 sequence (Q07954 20-4544): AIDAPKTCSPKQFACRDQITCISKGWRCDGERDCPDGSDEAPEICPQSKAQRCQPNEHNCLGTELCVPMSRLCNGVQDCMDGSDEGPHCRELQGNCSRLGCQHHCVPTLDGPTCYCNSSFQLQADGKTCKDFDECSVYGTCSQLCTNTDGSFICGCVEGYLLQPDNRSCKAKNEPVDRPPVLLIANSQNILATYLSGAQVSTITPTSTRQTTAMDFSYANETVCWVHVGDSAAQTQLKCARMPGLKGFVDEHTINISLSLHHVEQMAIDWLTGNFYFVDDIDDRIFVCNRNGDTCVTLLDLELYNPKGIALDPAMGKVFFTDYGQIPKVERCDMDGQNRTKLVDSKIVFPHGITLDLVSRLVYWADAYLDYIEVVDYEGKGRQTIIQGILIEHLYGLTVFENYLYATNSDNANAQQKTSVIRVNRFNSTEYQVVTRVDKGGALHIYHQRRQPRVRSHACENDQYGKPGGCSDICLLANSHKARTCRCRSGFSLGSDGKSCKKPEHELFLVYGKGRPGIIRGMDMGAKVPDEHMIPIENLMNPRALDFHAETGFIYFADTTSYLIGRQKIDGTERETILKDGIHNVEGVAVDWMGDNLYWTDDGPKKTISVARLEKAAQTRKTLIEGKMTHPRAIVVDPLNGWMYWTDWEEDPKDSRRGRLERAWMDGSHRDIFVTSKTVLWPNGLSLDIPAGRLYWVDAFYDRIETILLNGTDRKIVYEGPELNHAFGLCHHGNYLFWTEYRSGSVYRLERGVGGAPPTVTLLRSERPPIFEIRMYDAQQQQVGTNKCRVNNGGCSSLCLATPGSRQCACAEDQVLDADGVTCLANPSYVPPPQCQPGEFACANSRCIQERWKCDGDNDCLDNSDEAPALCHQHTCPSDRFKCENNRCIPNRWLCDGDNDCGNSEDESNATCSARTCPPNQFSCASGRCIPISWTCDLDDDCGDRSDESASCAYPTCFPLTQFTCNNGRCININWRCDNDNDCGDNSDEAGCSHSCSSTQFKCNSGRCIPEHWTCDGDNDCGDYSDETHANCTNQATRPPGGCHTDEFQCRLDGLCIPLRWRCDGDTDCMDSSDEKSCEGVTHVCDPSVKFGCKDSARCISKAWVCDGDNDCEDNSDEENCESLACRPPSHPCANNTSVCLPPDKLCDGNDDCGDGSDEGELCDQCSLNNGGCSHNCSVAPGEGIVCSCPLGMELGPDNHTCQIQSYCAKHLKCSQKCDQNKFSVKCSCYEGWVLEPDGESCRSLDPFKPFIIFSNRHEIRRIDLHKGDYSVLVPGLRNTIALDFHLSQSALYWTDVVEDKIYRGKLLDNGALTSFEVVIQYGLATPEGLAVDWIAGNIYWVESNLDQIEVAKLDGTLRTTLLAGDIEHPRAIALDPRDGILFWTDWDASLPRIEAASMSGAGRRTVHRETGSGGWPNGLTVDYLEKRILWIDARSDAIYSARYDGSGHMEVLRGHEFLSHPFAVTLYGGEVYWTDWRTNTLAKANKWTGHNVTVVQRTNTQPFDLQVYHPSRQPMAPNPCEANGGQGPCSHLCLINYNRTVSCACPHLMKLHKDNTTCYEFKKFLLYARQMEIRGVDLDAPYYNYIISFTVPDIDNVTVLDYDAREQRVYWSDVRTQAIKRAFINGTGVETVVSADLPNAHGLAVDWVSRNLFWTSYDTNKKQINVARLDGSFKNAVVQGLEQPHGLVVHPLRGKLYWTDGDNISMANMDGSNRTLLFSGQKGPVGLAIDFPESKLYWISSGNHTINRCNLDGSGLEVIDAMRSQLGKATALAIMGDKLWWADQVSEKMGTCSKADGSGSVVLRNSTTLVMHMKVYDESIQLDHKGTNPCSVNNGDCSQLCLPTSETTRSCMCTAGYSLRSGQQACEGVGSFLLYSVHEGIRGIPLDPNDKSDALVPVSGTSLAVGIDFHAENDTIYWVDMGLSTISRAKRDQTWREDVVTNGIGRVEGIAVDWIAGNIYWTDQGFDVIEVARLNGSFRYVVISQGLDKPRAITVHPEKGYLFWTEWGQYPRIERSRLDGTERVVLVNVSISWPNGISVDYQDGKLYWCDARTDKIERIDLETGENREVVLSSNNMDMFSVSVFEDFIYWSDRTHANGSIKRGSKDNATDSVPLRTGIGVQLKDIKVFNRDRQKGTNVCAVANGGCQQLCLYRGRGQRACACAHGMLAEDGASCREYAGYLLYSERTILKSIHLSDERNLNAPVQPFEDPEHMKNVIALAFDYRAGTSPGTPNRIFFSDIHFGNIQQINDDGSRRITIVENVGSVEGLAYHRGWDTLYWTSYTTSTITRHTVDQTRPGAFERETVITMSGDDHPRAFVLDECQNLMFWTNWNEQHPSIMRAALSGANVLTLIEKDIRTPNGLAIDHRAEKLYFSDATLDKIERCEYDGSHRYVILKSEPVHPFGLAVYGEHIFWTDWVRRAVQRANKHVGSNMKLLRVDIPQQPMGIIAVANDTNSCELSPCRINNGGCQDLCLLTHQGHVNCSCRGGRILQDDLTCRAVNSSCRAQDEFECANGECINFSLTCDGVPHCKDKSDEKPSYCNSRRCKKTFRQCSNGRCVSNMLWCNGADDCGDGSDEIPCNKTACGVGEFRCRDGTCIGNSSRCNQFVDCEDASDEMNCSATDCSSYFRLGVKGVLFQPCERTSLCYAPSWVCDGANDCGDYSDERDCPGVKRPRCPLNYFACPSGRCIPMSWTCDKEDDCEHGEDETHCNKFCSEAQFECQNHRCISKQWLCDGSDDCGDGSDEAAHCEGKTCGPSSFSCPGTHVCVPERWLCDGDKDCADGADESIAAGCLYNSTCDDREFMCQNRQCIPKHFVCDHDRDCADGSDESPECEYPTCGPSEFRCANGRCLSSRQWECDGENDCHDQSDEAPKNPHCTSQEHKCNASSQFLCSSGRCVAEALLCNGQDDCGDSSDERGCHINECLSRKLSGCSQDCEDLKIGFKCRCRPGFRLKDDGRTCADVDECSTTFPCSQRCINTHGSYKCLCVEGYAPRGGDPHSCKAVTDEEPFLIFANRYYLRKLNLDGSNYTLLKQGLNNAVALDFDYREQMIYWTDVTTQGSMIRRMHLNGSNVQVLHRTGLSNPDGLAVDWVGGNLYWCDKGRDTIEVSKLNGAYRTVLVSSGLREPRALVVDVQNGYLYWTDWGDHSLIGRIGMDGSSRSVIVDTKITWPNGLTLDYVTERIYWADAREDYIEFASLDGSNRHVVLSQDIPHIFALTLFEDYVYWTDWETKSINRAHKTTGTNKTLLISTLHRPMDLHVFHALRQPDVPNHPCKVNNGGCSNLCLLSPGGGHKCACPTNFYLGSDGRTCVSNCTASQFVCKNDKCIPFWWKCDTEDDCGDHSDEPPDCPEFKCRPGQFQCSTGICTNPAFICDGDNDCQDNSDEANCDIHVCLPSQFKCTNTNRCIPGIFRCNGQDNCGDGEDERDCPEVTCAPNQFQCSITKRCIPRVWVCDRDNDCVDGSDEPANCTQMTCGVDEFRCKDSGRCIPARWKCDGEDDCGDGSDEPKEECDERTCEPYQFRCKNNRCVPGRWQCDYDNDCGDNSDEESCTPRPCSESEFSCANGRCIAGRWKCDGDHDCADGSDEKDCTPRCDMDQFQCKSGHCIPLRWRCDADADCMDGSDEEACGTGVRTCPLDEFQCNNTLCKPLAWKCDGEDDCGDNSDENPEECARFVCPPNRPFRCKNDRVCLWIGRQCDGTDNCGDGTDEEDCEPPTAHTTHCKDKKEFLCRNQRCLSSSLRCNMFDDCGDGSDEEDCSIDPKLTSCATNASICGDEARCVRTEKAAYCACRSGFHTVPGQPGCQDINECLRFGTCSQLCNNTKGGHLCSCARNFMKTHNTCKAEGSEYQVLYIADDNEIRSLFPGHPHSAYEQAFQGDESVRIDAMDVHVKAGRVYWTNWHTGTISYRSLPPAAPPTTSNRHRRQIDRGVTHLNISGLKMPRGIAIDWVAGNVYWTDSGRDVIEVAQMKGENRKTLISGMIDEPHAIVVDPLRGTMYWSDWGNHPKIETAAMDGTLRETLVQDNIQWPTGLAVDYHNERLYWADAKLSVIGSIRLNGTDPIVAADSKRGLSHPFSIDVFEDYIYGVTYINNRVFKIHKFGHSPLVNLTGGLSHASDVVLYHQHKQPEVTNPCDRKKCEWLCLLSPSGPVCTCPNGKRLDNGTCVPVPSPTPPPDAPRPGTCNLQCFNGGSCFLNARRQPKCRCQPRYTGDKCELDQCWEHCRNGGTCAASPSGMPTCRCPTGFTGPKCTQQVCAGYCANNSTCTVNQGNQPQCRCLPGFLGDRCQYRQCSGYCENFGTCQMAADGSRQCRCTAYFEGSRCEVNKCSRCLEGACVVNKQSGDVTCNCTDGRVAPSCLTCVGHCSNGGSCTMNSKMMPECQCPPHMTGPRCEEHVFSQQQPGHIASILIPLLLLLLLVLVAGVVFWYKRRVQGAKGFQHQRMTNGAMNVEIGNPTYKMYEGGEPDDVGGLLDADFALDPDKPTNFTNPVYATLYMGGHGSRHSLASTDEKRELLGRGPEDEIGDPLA

Compared with B1, B2 is 130-fold lower in Kd: 77.6 nM for the first, 0.6 nM for the second.

B3 and B4 are within 1.5-fold of each other in Kd: 6.42 nM for the first, 8.67 nM for the second.

B5 and B6 are within 1.5-fold of each other in Kd: 3.3 nM for the first, 4.5 nM for the second.

First: B7
Second: B8
The Kd of the first is 2.5-fold higher: 5.65 nM for the first, 2.27 nM for the second. The second binds more tightly here.

B9 gave a Kd of 30.9 nM.

B1 and B2 are within 1.5-fold of each other in koff: 0.00381 s⁻¹ for the first, 0.00419 s⁻¹ for the second.

Compared with B3, B4 is 1.5-fold higher in koff: 0.00254 s⁻¹ for the first, 0.00386 s⁻¹ for the second.

B5 and B6 are within 1.5-fold of each other in koff: 0.00217 s⁻¹ for the first, 0.00206 s⁻¹ for the second.

First: B7
Second: B8
The koff of the first is 2.1-fold lower: 0.00321 s⁻¹ for the first, 0.00678 s⁻¹ for the second.

B9 showed a koff of 0.0109 s⁻¹.

First: B1
Second: B2
The kon of the first is 140-fold lower: 49000 M⁻¹ s⁻¹ for the first, 6.88e+06 M⁻¹ s⁻¹ for the second.

B3 and B4 are within 1.5-fold of each other in kon: 396000 M⁻¹ s⁻¹ for the first, 446000 M⁻¹ s⁻¹ for the second.

B5 and B6 are within 1.5-fold of each other in kon: 659000 M⁻¹ s⁻¹ for the first, 457000 M⁻¹ s⁻¹ for the second.

Going from B7 to B8, the kon rises from 567000 M⁻¹ s⁻¹ to 2.99e+06 M⁻¹ s⁻¹ (5.3-fold).

With B9 the kon was 353000 M⁻¹ s⁻¹.
